{"source": "paper PMC9482650", "about": "“Quantitative fragmentomics allow affinity mapping of interactomes” (Nature Communications, 2022)", "molecules": {"B1": {"name": "NONO (protein, UniProt Q15233 1-471, looked up)", "Non-POU domain-containing …": "MQSNKTFNLEKQNHTPRKHHQHHHQQQHHQQQQQQPPPPPIPANGQQASSQNEGLTIDLKNFRKPGEKTFTQRSRLFVGNLPPDITEEEMRKLFEKYGKAGEVFIHKDKGFGFIRLETRTLAEIAKVELDNMPLRGKQLRVRFACHSASLTVRNLPQYVSNELLEEAFSVFGQVERAVVIVDDRGRPSGKGIVEFSGKPAARKALDRCSEGSFLLTTFPRPVTVEPMDQLDDEEGLPEKLVIKNQQFHKEREQPPRFAQPGSFEYEYAMRWKALIEMEKQQQDQVDRNIKEAREKLEMEMEAARHEHQVMLMRQDLMRRQEELRRMEELHNQEVQKRKQLELRQEEERRRREEEMRRQQEEMMRRQQEGFKGTFPDAREQEIRMGQMAMGGAMGINNRGAMPPAPVPAGTPAPPGPATMMPDGTLGLTPPTTERFGQAATMEGIGAIGGTPPAFNRAAPGAEFAPNKRRRY"}, "B2": {"name": "CDH1 (protein, UniProt P12830 155-882, looked up)", "Cadherin-1": "DWVIPPISCPENEKGPFPKNLVQIKSNKDKEGKVFYSITGQGADTPPVGVFIIERETGWLKVTEPLDRERIATYTLFSHAVSSNGNAVEDPMEILITVTDQNDNKPEFTQEVFKGSVMEGALPGTSVMEVTATDADDDVNTYNAAIAYTILSQDPELPDKNMFTINRNTGVISVVTTGLDRESFPTYTLVVQAADLQGEGLSTTATAVITVTDTNDNPPIFNPTTYKGQVPENEANVVITTLKVTDADAPNTPAWEAVYTILNDDGGQFVVTTNPVNNDGILKTAKGLDFEAKQQYILHVAVTNVVPFEVSLTTSTATVTVDVLDVNEAPIFVPPEKRVEVSEDFGVGQEITSYTAQEPDTFMEQKITYRIWRDTANWLEINPDTGAISTRAELDREDFEHVKNSTYTALIIATDNGSPVATGTGTLLLILSDVNDNAPIPEPRTIFFCERNPKPQVINIIDADLPPNTSPFTAELTHGASANWTIQYNDPTQESIILKPKMALEVGDYKINLKLMDNQNKDQVTTLEVSVCDCEGAAGVCRKAQPVEAGLQIPAILGILGGILALLILILLLLLFLRRRAVVKEPLLPPEDDTRDNVYYYDEEGGGEEDQDFDLSQLHRGLDARPEVTRNDVAPTLMSVPRYLPRPANPDEIGNFIDENLKAADTDPTAPPYDSLLVFDYEGSGSEAASLSSLNSSESDKDQDYDYLNEWGNRFKKLADMYGGGEDD"}, "B3": {"name": "BAIAP2L1 (protein, UniProt Q9UHR4 1-511, looked up)", "BAR/IMD domain-containing …": "MSRGPEEVNRLTESTYRNVMEQFNPGLRNLINLGKNYEKAVNAMILAGKAYYDGVAKIGEIATGSPVSTELGHVLIEISSTHKKLNESLDENFKKFHKEIIHELEKKIELDVKYMNATLKRYQTEHKNKLESLEKSQAELKKIRRKSQGSRNALKYEHKEIEYVETVTSRQSEIQKFIADGCKEALLEEKRRFCFLVDKHCGFANHIHYYHLQSAELLNSKLPRWQETCVDAIKVPEKIMNMIEEIKTPASTPVSGTPQASPMIERSNVVRKDYDTLSKCSPKMPPAPSGRAYTSPLIDMFNNPATAAPNSQRVNNSTGTSEDPSLQRSVSVATGLNMMKKQKVKTIFPHTAGSNKTLLSFAQGDVITLLIPEEKDGWLYGEHDVSKARGWFPSSYTKLLEENETEAVTVPTPSPTPVRSISTVNLSENSSVVIPPPDYLECLSMGAAADRRADSARTTSTFKAPASKPETAAPNDANGTAKPPFLSGENPFATVKLRPTVTNDRSAPIIR"}, "B4": {"name": "PGP (protein, UniProt A6NDG6 1-321, looked up)", "Glycerol-3-phosphate …": "MAAAEAGGDDARCVRLSAERAQALLADVDTLLFDCDGVLWRGETAVPGAPEALRALRARGKRLGFITNNSSKTRAAYAEKLRRLGFGGPAGPGASLEVFGTAYCTALYLRQRLAGAPAPKAYVLGSPALAAELEAVGVASVGVGPEPLQGEGPGDWLHAPLEPDVRAVVVGFDPHFSYMKLTKALRYLQQPGCLLVGTNMDNRLPLENGRFIAGTGCLVRAVEMAAQRQADIIGKPSRFIFDCVSQEYGINPERTVMVGDRLDTDILLGATCGLKTILTLTGVSTLGDVKNNQESDCVSKKKMVPDFYVDSIADLLPALQG"}}, "key": {"HeLa cell extract preys": {"system": "HeLa cell extract preys", "assay": "PDZ-AP-MS, biotinylated MBP-PDZ baits", "type": "binding, human", "details": "for Ratio: fold enrichment of prey; for Difference: log2 enrichment of prey", "procedure": "(§1) For PDZ-AP-MS experiments, PDZ domains were cloned as His6-AviTag-MBP-PDZ constructs. For co-expression with BirA, E. coli BL21(DE3) cells were co-transformed with His6-AviTag-MBP, or His6-AviTag-MBP-PDZ-coding and PET21a-BirA (Addgene #20857) plasmids. Simultaneously to IPTG induction, 50 µM biotin was added to the media. After cell harvesting, the lysis buffer was also supplemented with 50 µM biotin. Otherwise, expression and double affinity purification was identical as previously described in details.\n(§2) For PBM-AP-MS experiments, 30 μl streptavidin resin was mixed with biotin or peptide at 50–60 μM concentration in 6–6.5 resin volume for 60 min to achieve resin saturation. For PDZ-AP-MS experiments, 30 μl streptavidin resin was mixed with biotinylated MBP or MBP-PDZ at 40-50 μM concentration in >1000× resin volume for 60 min to achieve resin saturation. After saturation, resins were washed a single time (ten resin volume, holdup buffer), and were depleted with biotin (1 mM biotin, 5–10 resin volume, 10 min). Finally, resins were washed two times. 0.5 ml 2 mg/ml cell lysate was added to the dry resin (1 mg total input) and were incubated at 4 °C for 2 h. Then, the beads were washed three times with 10 resin volume buffer containing: 50 mM TRIS pH 8.5, 150 mM NaCl, 1% TritonX-100, 10× complete EDTA-free protease inhibitor cocktail, 2 mM EDTA, 1 mM TCEP. Then, the beads were washed two times with ten resin volume buffer containing: 50 mM TRIS pH 8.5, 150 mM NaCl, 1 mM TCEP. Finally, captured protein was eluted from the resin in two steps and the eluted fractions were pooled. For each elution the beads were incubated for 30 min with three resin volume buffer containing: 20 mM TRIS pH8.5, 100 mM NaCl, 500 μM TCEP, 8 M Urea. Between each step, the beads were separated by mild centrifugation and the supernatant was removed by gentle pipetting.\n(§3) The samples were precipitated with TCA 20% overnight at 4 °C and centrifuged at 14,000 rpm for 10 min at 4 °C. The protein pellets were washed twice with 1 mL cold acetone and air dried. The protein extracts were solubilized in urea 8 M, reduced with 5 mM TCEP for 30 min, and alkylated with 10 mM iodoacetamide for 30 min in the dark. Double digestion was performed at 37 °C with 500 ng endoproteinase Lys-C for 4 h, followed by fourfold dilution and an overnight digestion with 500 ng trypsin. Peptide mixtures were then desalted on C18 spin-column and dried on Speed-Vacuum.\n(§4) Samples were analyzed using an Ultimate 3000 nano-RSLC (Thermo Scientific, San Jose California) coupled in line with a LTQ-Orbitrap ELITE mass spectrometer via a nano-electrospray ionization source (Thermo Scientific, San Jose California). Peptide mixtures were injected in 0.1% TFA on a C18 Acclaim PepMap100 trap-column (75 µm ID × 2 cm, 3 µm, 100 Å, Thermo Fisher Scientific) for 3 min at 5 µL/min with 2% ACN, 0.1% FA in H2O and then separated on a C18 Accucore nano-column (75 µm ID × 50 cm, 2.6 µm, 150 Å, Thermo Fisher Scientific) at 220 nl/min and 38 °C with a 90 min linear gradient from 5% to 30% buffer B (A: 0.1% FA in H2O/B: 99% ACN, 0.1% FA in H2O), regeneration at 5% B. The mass spectrometer was operated in positive ionization mode, in data-dependent mode with survey scans from m/z 350–1500 acquired in the Orbitrap at a resolution of 120,000 at m/z 400. The 20 most intense peaks from survey scans were selected for further fragmentation in the Linear Ion Trap with an isolation window of 2.0 Da and were fragmented by CID with normalized collision energy of 35%. (TOP20CID method) Unassigned and single charged states were excluded from fragmentation. The Ion Target Value for the survey scans (in the Orbitrap) and the MS2 mode (in the Linear Ion Trap) were set to 1E6 and 5E3 respectively and the maximum injection time was set to 100 ms for both scan modes. Dynamic exclusion was set to 20 s after one repeat count with mass width at ±10 ppm. […]"}, "HaCat cell extract preys": {"system": "HaCat cell extract preys", "assay": "PDZ-AP-MS, biotinylated MBP-PDZ baits", "type": "binding, human", "details": "for Difference log2: enrichment of prey", "procedure": "as §1, §2, §3, §4"}, "HEK293T cells": {"system": "HEK293T cells", "assay": "Label-free MS proteome of stable cell lines expressing HPV16 E6 or E6ΔPBM", "type": "cell-based, human", "details": "protein level", "procedure": "HEK293T and HeLa cells were authenticated and found 100% identity to ATCC cat. CRL-3216 and ATCC cat. CCL-2, respectively. Jurkat and HaCat cell lines were not authenticated (original source: ECACC and Deutsches Krebsforschungszentrum DKFZ, respectively). HeLa cells were grown in DMEM (1 g/L glucose, Gibco) medium completed with 5% FCS and 40 μg/mL gentamicin, diluted every 3rd/4th day 1/10. HaCat cells were grown in DMEM (1 g/L glucose, Gibco) medium completed with 10% FCS and 40 μg/mL gentamicin, diluted every 3rd/4th day 1/4. Jurkat cells were grown in RPMI (Gibco) medium completed with 10% FCS and 40 μg/mL gentamicin, diluted every 3rd/4th day 1/12. All cells were kept at 37 °C and 5% CO2. For proteomics analyses cells were seeded on T-175 flasks. After they reached confluency, adherent cells were washed with PBS once and collected by scraping with ice-cold lysis buffer (Hepes-KOH pH 7.5 50 mM, NaCl 150 mM, Triton X-100 1%, complete EDTA-free protease inhibitor cocktail 1×, EDTA 2 mM, TCEP 5 mM, glycerol 10%). Jurkat cells were collected by 1000 g × centrifugation, washed once with PBS, then collected by 1000 g × 5 min centrifugation again and lysed in ice-cold lysis buffer. Lysates were sonicated 4 × 20 s with 1 s long pulses on ice, then incubated rotating at 4 °C for 30 min. Lysates were centrifuged at 12,000 rpm 4 °C for 20 min and supernatant was kept for further analysis. Concentration determination was carried out by standard Bradford method (Bio-Rad Protein Assay Dye Reagent #5000006) using BSA (MP BIomedicals #160069) as control on a Bio-Rad SmartSpec 3000 spectrophotometer instrument.\nas §3\nSamples were analyzed using an Ultimate 3000 nano-RSLC (Thermo Scientific, San Jose California) coupled in line with a LTQ-Orbitrap ELITE mass spectrometer via a nano-electrospray ionization source (Thermo Scientific, San Jose California). Peptide mixtures were injected in 0.1% TFA on a C18 Acclaim PepMap100 trap-column (75 µm ID × 2 cm, 3 µm, 100 Å, Thermo Fisher Scientific) for 3 min at 5 µL/min with 2% ACN, 0.1% FA in H2O and then separated on a C18 Accucore nano-column (75 µm ID × 50 cm, 2.6 µm, 150 Å, Thermo Fisher Scientific) at 220 nl/min and 38 °C with a 90 min linear gradient from 5% to 30% buffer B (A: 0.1% FA in H2O/B: 99% ACN, 0.1% FA in H2O), regeneration at 5% B. The mass spectrometer was operated in positive ionization mode, in data-dependent mode with survey scans from m/z 350–1500 acquired in the Orbitrap at a resolution of 120,000 at m/z 400. The 20 most intense peaks from survey scans were selected for further fragmentation in the Linear Ion Trap with an isolation window of 2.0 Da and were fragmented by CID with normalized collision energy of 35%. (TOP20CID method) Unassigned and single charged states were excluded from fragmentation. The Ion Target Value for the survey scans (in the Orbitrap) and the MS2 mode (in the Linear Ion Trap) were set to 1E6 and 5E3 respectively and the maximum injection time was set to 100 ms for both scan modes. Dynamic exclusion was set to 20 s after one repeat count with mass width at ±10 ppm.\nProteins were identified by database searching using SequestHT (Thermo Fisher Scientific) with Proteome Discoverer 2.4 software (PD2.4, Thermo Fisher Scientific) on human FASTA database downloaded from SwissProt (reviewed, release 2020_11_27, 20304 entries, https://www.uniprot.org/). […]"}}}
{"molecule": "B1", "values": [{"measurement": "Ratio", "setting": "HeLa cell extract preys; bait DLG1_1 PDZ vs MBP control", "value": 31.101}, {"measurement": "Difference", "setting": "HeLa cell extract preys; bait DLG1_1 PDZ vs MBP control", "value": 4.959}, {"measurement": "Difference", "setting": "HeLa cell extract preys; bait SCRIB_2 PDZ (biotinylated MBP-PDZ) vs MBP control", "value": 4.7577}, {"measurement": "Ratio", "setting": "HeLa cell extract preys; bait SCRIB_2 PDZ vs MBP control", "value": 27.0527}]}
{"molecule": "B2", "values": [{"measurement": "Difference log2", "setting": "HaCat cell extract preys; bait TX1BP3 PDZ vs MBP", "value": 8.222}, {"measurement": "Ratio TX1BP3/MBP", "setting": "HaCat cell extract preys; bait TX1BP3 PDZ, fold change of prey", "value": 298.682}]}
{"molecule": "B3", "values": [{"measurement": "Difference log2", "setting": "HaCat cell extract preys; bait SCRIB_2 PDZ vs MBP", "value": 3.855}, {"measurement": "Ratio SCRIB_2/MBP", "setting": "HaCat cell extract preys; bait SCRIB_2 PDZ, fold change of prey", "value": 14.4736}]}
{"molecule": "B4", "values": [{"measurement": "Difference log2 E6/Ctrl", "setting": "HEK293T cells; E6 cell line vs control", "value": 0.3606}, {"measurement": "Ratio E6/Ctrl", "setting": "HEK293T cells; E6 cell line vs control", "value": 1.284}, {"measurement": "Difference log2 dPBM/E6", "setting": "HEK293T cells; dPBM cell line vs E6 cell line", "value": 0.0821}, {"measurement": "Ratio dPBM/E6", "setting": "HEK293T cells; dPBM cell line vs E6 cell line", "value": 1.059}, {"measurement": "Difference log2 dPBM/Ctrl", "setting": "HEK293T cells; dPBM cell line vs control", "value": 0.4427}, {"measurement": "Ratio dPBM/Ctrl", "setting": "HEK293T cells; dPBM cell line vs control", "value": 1.359}]}
